Reference: US8673848 (Novartis, dated 2014)
Bridges are numbered along the chain shown (N, C = ends). [ ]: non-standard residue; d: D form. The star is where a group is joined. pGlu = O=C1CC[C@@H](C(=O)O)N1; Lauroyl = CCCCCCCCCCCC(=O)*; Nle = CCCC[C@H](N)C(=O)O; Orn = NCCC[C@H](N)C(=O)O

B1: Example 29: pE-R-C-R-L-C-C-K-G-P-Nle-C-F-OH (peptide)
peptide: [pGlu]RCRLCCKGP[Nle]CF-OH
modifications: disulfide 6-12, 3-7
B2: Example 27: pE-R-P-R-L-C-K(Lauroyl)-K-G-P-Nle-C-F-OH (peptide)
peptide: [pGlu]RPRLCK(Lauroyl)KGP[Nle]CF-OH
modifications: disulfide 6-12
SMILES: CCCCCCCCCCCC(=O)NCCCC[C@@H]1NC(=O)[C@@H](NC(=O)[C@H](CC(C)C)NC(=O)[C@H](CCCNC(=N)N)NC(=O)[C@@H]2CCCN2C(=O)[C@H](CCCNC(=N)N)NC(=O)[C@@H]2CCC(=O)N2)CSSC[C@@H](C(=O)N[C@@H](Cc2ccccc2)C(=O)O)NC(=O)[C@H](CCCC)NC(=O)[C@@H]2CCCN2C(=O)CNC(=O)[C@H](CCCCN)NC1=O
B3: Example 28: pE-R-P-C-L-C-C-K-G-P-Nle-C-F-OH (peptide)
peptide: [pGlu]RPCLCCKGP[Nle]CF-OH
modifications: disulfide 6-12, 4-7
B4: Example 31: pE-F-P-R-L-C-H-K-G-P-Nle-C-F-OH (peptide)
peptide: [pGlu]FPRLCHKGP[Nle]CF-OH
modifications: disulfide 6-12
SMILES: CCCC[C@@H]1NC(=O)[C@@H]2CCCN2C(=O)CNC(=O)[C@H](CCCCN)NC(=O)[C@H](Cc2c[nH]cn2)NC(=O)[C@@H](NC(=O)[C@H](CC(C)C)NC(=O)[C@H](CCCNC(=N)N)NC(=O)[C@@H]2CCCN2C(=O)[C@H](Cc2ccccc2)NC(=O)[C@@H]2CCC(=O)N2)CSSC[C@@H](C(=O)N[C@@H](Cc2ccccc2)C(=O)O)NC1=O
B5: Example 32: pE-E-P-R-L-C-H-K-G-P-Nle-C-F-OH (peptide)
peptide: [pGlu]EPRLCHKGP[Nle]CF-OH
modifications: disulfide 6-12
SMILES: CCCC[C@@H]1NC(=O)[C@@H]2CCCN2C(=O)CNC(=O)[C@H](CCCCN)NC(=O)[C@H](Cc2c[nH]cn2)NC(=O)[C@@H](NC(=O)[C@H](CC(C)C)NC(=O)[C@H](CCCNC(=N)N)NC(=O)[C@@H]2CCCN2C(=O)[C@H](CCC(=O)O)NC(=O)[C@@H]2CCC(=O)N2)CSSC[C@@H](C(=O)N[C@@H](Cc2ccccc2)C(=O)O)NC1=O
B6: Example 3: pE-R-P-R-L-Orn-H-F-G-P-Nle-D-Phenethylamine (peptide)
peptide: [pGlu]RPRL[Orn]HFGP[Nle]D-Phenethylamine
modifications: lactam 6-12
B7: Example 30: pE-r-P-R-L-C-H-K-G-P-Nle-C-F-OH (peptide)
peptide: [pGlu][dR]PRLCHKGP[Nle]CF-OH
modifications: disulfide 6-12
SMILES: CCCC[C@@H]1NC(=O)[C@@H]2CCCN2C(=O)CNC(=O)[C@H](CCCCN)NC(=O)[C@H](Cc2c[nH]cn2)NC(=O)[C@@H](NC(=O)[C@H](CC(C)C)NC(=O)[C@H](CCCNC(=N)N)NC(=O)[C@@H]2CCCN2C(=O)[C@@H](CCCNC(=N)N)NC(=O)[C@@H]2CCC(=O)N2)CSSC[C@@H](C(=O)N[C@@H](Cc2ccccc2)C(=O)O)NC1=O
B8: Example 33: pE-R-p-R-L-C-H-K-G-P-Nle-C-F-OH (peptide)
peptide: [pGlu]R[dP]RLCHKGP[Nle]CF-OH
modifications: disulfide 6-12
SMILES: CCCC[C@@H]1NC(=O)[C@@H]2CCCN2C(=O)CNC(=O)[C@H](CCCCN)NC(=O)[C@H](Cc2c[nH]cn2)NC(=O)[C@@H](NC(=O)[C@H](CC(C)C)NC(=O)[C@H](CCCNC(=N)N)NC(=O)[C@H]2CCCN2C(=O)[C@H](CCCNC(=N)N)NC(=O)[C@@H]2CCC(=O)N2)CSSC[C@@H](C(=O)N[C@@H](Cc2ccccc2)C(=O)O)NC1=O
B9: Example 26: pE-R-P-R-L-C-H-K-G-P-Nle-C-K(Lauroyl)-OH (peptide)
peptide: [pGlu]RPRLCHKGP[Nle]CK(Lauroyl)-OH
modifications: disulfide 6-12
SMILES: CCCCCCCCCCCC(=O)NCCCC[C@H](NC(=O)[C@@H]1CSSC[C@H](NC(=O)[C@H](CC(C)C)NC(=O)[C@H](CCCNC(=N)N)NC(=O)[C@@H]2CCCN2C(=O)[C@H](CCCNC(=N)N)NC(=O)[C@@H]2CCC(=O)N2)C(=O)N[C@@H](Cc2c[nH]cn2)C(=O)N[C@@H](CCCCN)C(=O)NCC(=O)N2CCC[C@H]2C(=O)N[C@@H](CCCC)C(=O)N1)C(=O)O

What follows are binders tested against T1, human APJ receptor (hAPJ) (human, UniProt P35414 1-380) (assay: cell-based or functional assay).
T1 sequence (looked up): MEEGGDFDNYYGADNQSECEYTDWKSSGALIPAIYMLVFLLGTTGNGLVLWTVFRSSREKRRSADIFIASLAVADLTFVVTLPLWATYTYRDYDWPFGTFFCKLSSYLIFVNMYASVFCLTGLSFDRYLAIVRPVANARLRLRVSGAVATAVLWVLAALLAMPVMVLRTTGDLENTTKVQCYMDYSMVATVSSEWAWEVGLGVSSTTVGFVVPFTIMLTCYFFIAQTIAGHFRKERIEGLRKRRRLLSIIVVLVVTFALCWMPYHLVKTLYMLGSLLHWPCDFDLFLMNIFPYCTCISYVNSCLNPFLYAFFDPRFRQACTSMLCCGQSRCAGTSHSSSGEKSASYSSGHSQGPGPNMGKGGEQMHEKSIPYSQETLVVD

Binder | hAPJ Ca2+ Flux EC50 [nM]
B1 | 4.33
B2 | 65.5
B3 | 5.68
B4 | 84.1
B5 | 518
B6 | 1010
B7 | 6.05
B8 | 8.1
B9 | 29.8
